According to patent US5356875A, “Anti-thrombin polypeptides and pharmaceutical compositions thereof” (Farmitalia Carlo ERBA S.r.l., priority 1991, dated 1994):
Blank lines part the entries; values can stand above or below the molecule they belong to.

Experiments:
[1] = cited from earlier work
[2] = target: T1, thrombin (Homo sapiens, UniProt P00734); experiment: anti-thrombin activity of P2 released from fusion protein (test not specified); type: biochemical; details: P2 released by CNBr cleavage of polyhedrin fusion protein from S. frugiperda cytoplasm
Description: The recombinant baculovirus was obtained as described in Example 5. Infection of S. frugiperda cells was carried out according to standard procedures^20. Cultivation of infected insect cells lead to the cytoplasmic accumulation of the fusion protein. This hybrid protein was the source of recombinant protein P2. Several methods are available from the literature which can be used to cleave the hybrid with CNBr^22,23.The application of the method of Olson et al^23, has allowed us to obtain the correct polypeptidic sequence of P2.

[3] = target: T1, thrombin; experiment: chromogenic assay: inhibition of thrombin cleavage of synthetic substrate S-2238; type: biochemical

Molecule: hirudin
efficacy in preventing venous thrombosis, vascular shunt occlusion and thrombin-induced disseminated intravascular coagulation ([1]; animal studies): demonstrated efficacy
antigenicity ([1]; in vivo): little or no antigenicity
clearance time from circulation ([1]; in vivo): very short clearance time
toxicity ([1]; in vivo): low toxicity

anti-thrombin activity [2]: displayed anti-thrombin activity
activity of P2 ([3]; E. coli type B strains with plasmid pOMP-P2 (Plpp/lac promoter)): active
anti-thrombin activity ([3]; culture supernatants of S. frugiperda cells infected with recombinant baculovirus, spinner culture or monolayers): presence of an anti-thrombin activity
anti-thrombin activity ([3]; periplasmic fraction of E. coli type B NCTC 10537 transformed with pFC-P2): presence of anti-thrombin activity
B1: P2: 64-residue anti-thrombin polypeptide from Hirudinaria manillensis, HPLC peak P2, sequence (ii); also produced recombinantly in E. coli and insect cells (protein)
chain: VSYTDCTESGQNYCLCVGSNVCGEGKNCQLSSSGNQCVHGEGTPKPKSQTEGDFEEIPDEDILN
